Here are results for two molecules from patent US20130266574A1 (Regeneron, published 2013).

The target of one assay is T1, bovine LPL (bovine, UniProt P11151 29-478).
T1 sequence (looked up): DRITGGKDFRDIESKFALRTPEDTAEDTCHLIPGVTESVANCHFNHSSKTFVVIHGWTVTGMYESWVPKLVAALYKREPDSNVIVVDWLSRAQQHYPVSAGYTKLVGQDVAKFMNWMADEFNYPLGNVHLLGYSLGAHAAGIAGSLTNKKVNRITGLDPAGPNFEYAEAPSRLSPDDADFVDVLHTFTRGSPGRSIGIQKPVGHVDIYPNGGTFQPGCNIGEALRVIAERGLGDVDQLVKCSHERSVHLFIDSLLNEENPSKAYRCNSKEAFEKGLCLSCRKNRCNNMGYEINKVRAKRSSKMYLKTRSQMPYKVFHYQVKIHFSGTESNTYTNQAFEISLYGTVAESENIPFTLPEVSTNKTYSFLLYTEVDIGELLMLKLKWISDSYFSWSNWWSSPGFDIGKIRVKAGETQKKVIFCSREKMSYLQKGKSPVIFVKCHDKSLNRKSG
Nature of the assay: cell-based or functional assay.

Assay [1] concerns the target T2, full-length hANGPTL4 (amino acid residues 26-406 of SEQ ID NO:476) with a C-terminal hexa-histidine tag (human, UniProt Q9BY76 26-406).
T2 construct: also called hANGPTL4-His; hANGPTL4(26-406)-His
T2 sequence: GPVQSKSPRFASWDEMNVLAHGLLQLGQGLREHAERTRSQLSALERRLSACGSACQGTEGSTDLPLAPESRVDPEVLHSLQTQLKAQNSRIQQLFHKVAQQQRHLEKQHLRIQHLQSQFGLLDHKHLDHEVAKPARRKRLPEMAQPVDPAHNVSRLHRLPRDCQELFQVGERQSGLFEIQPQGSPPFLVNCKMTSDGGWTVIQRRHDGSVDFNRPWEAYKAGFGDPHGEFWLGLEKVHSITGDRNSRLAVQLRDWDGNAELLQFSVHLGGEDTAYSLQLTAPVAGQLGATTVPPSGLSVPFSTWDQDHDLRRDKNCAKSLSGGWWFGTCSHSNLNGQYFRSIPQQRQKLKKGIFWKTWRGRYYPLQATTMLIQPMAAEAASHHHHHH
Nature of the assay: SPR (Biacore), 25° C., pH 5.75, antigen amino-coupled 450 RU. Here is the method:
(§1) Kinetic analysis was performed to measure kₐ and kd, and KD values and half-life of antigen/antibody complex dissociation were calculated. The results are shown in Table 4 (H1H268P) and Table 5 (H1H284P).
On the technique in general: SPR reads the build-up and loss of mass on a sensor chip optically.

The target of assay [2] is T3, cynomolgus monkey ANGPTL4 N-terminal region (amino acid residues 1-130 of SEQ ID NO:490) with a C-terminal … (cynomolgus monkey (Macaca fascicularis), UniProt Q9BY76 26-130 (human entry)).
T3 construct: also called MfANGPTL4(1-130)-His
T3 chain: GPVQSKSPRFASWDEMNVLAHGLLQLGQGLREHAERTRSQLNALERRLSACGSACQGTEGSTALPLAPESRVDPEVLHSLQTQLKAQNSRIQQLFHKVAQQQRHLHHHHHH
Nature of the assay: SPR (Biacore), 25° C., pH 5.75, antigen amino-coupled 1,028 RU. As for the experimental part: as §1

Assay [3] deals with T3, cynomolgus monkey ANGPTL4 N-terminal …. Nature of the assay: SPR (Biacore), 25° C., pH 7.2, antigen amino-coupled 1,028 RU. As for the experimental part: as §1
Assay [4] addresses T2, full-length hANGPTL4 (amino acid …). Kind of assay: SPR (Biacore), 25° C., pH 7.2, antigen amino-coupled 450 RU. Here is the method: as §1
Assay [5] deals with T4, amino acid residues 26-148 of human ANGPTL4 fused in-line to mouse IgG2a (hANGPTL4-mFc) (human).
T4 construct: contains the N-terminal coiled-coil region
T4 chain: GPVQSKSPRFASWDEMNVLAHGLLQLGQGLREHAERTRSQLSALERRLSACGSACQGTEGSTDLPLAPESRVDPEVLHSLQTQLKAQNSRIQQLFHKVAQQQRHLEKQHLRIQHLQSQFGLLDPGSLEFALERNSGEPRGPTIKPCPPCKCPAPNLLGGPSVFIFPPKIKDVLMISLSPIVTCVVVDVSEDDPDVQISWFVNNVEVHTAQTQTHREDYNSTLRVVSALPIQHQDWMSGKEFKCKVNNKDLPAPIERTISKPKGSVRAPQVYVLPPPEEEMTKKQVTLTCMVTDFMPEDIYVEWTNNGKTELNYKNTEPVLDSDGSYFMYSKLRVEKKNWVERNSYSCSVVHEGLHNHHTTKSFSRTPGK
Nature of the assay: SPR (Biacore), 25° C., pH 7.2, antigen captured by anti-mFc. Here is the method: as §1

The target of assay [6] is T4, amino acid residues 26-148 of human …. Nature of the assay: SPR (Biacore), 25° C., pH 5.75, antigen captured by anti-mFc. As for the experimental part: as §1
The target in assay [7] is T3, cynomolgus monkey ANGPTL4 N-terminal …. Kind of assay: SPR (Biacore), 25° C., pH 5.75, antigen amino-coupled 1,028 RU; Fab, not full mAb; pH 5.75. Here is the method:
as §1

The molecule “cynomolgus monkey ANGPTL4 N-terminal region (amino acid residues 26-148) with an N-terminal hexa-histidine tag (from UniProt Q9BY76 26-148) (ligand)” came in with an EC50 (nM) of the ANGPTL4 protein in the LPL assay with bovine LPL of 3.89 nM.

B1: H1H284P Fab fragment (Fab, V domains shown)
VH: QVQLVESGGGVVQPGRSLRLSCAASGFTFSSYGMHWVRQAPGKGLEWMAVISFDGGNKNNADSVKGRFTISRDNSKNTLYLQMNSLRAEDTAVYYCAKEGDRSGHPYFYYYGLDVWGQGTTVTVS
VL: DIQLTQSPSFLSASVGDRVTITCWASQGISSYLAWYQQKPGKAPKLLIYAASTLQSGVPSRFSGSGSETEFTLTISSLQPEDFATYYCQQLHSYPLTFGGGTKVEIK
notes: Fab made by papain digestion of H1H284P (IgG1); also called H1H284 Fab
Regarding B1, the Kd in assay [1] is 1.44 nM; in assay [3], 10.1 nM; in assay [4], 0.31 nM; in assay [5], 0.823 nM; in assay [6], 3.4 nM; in assay [7] it was 8.54 nM. The koff in assay [1] came to 0.00173 s⁻¹; in assay [2], 0.00619 s⁻¹; in assay [3], 0.00313 s⁻¹; in assay [4], 0.000344 s⁻¹; in assay [5], 0.000202 s⁻¹; in assay [6], 0.0016 s⁻¹. For the same molecule, the kon in assay [1] is 1.21e+06 M⁻¹ s⁻¹; in assay [2], 724000 M⁻¹ s⁻¹; in assay [3], 310000 M⁻¹ s⁻¹; in assay [4], 1.11e+06 M⁻¹ s⁻¹; in assay [5], 245000 M⁻¹ s⁻¹; in assay [6] it was 472000 M⁻¹ s⁻¹. Further, the t1/2 in assay [1] was determined as 7 min; in assay [2] it was 2 min; in assay [3], 4 min; in assay [4] it was 34 min; in assay [5], 57 min; in assay [6] it was 7 min.

Broadly, the Kd is the constant that tells how readily two partners part at equilibrium. The term koff denotes the first-order rate constant of dissociation. As usually defined, the kon is the rate constant with which the complex forms.
